Values quoted from earlier work, collected in PMC3138048.

Target: Lys199 (UniProt position 223, AKQRLKCASLQ)
Assay: chemical modification

Substance: Human serum albumin (HSA) (Homo sapiens)
- pKa: 7.9
